Assay results reported in the supplement of paper PMC9170038.

System: K4 kissing-loop RNA reporter
Assay: apparent KD of K4 kissing-loop reporter; higher = weaker reporter binding
Conditions: Eterna round: R107
Procedure: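 RNA-MaP round R107: designed RNA switches with theophylline, tryptophan, arginine or FMN aptamers are transcribed on-chip within common flanks. They are titrated with a labelled K4 kissing-loop RNA reporter in RNA-MaP buffer (100 mM Tris pH 7.5, 80 mM KCl, 4 mM MgCl2), without ligand or with the indicated ligand. Median apparent KD per design.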

[1] = input ligand: theophylline 20 uM
[2] = input ligand: tryptophan 2.4 mM
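Further: bound reporter read as fluorescence of individual clusters on recovered sequencing chips by microscopy, with normalized cluster intensities fitted with a binding model.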

| Sequence | apparent KD of K4 kissing-loop reporter (input ligand: FMN 200 uM) [nM] | apparent KD of K4 kissing-loop reporter (input ligand: arginine 13.2 mM) [nM] | apparent KD of K4 kissing-loop reporter (input ligand: none) [nM] | apparent KD of K4 kissing-loop reporter [1] [nM] | apparent KD of K4 kissing-loop reporter [2] [nM] |
| --- | --- | --- | --- | --- | --- |
| UCUUGAGUAUAUGAUACCAGCAGUGAGAGACAGGAAGUAUAGUGAUGUUAUAUGAGAGAAUGCCCUUGGCAGCGUGUGCGGUGGG [SSTheophylB.S] | 103 | 144 | 112 | 187 | 94.7 |
| UGACUGGACUGAAGGAGCGCGAAACUCCUAGUGAUGUUAGGAUAACGAGACAAAGUCUCGACGCAGGUAGGUCGCAGUCUAGUCU | 130 | 92.6 | 116 | 119 | 120 |
| UGACUGGAUGGAAGGAGCGCUAAACUCCUAGUGAUGUUAGGGACACGAGGCAAAGCCUCGAAGCAGGUAGGUCGCCAUCUAGUCU [FiskerMod 22 - Jieux - Same State - Arginine B] | 184 | 148 | 174 | 182 | 167 |
| UGAUAAAGCAGUGAUGUUGCAAGUAAUGAUACCAGUUAAGAAGAGAACCCUUGGCAGCAUAAAGUGCGCUCUGAUGAGUGUGCUU [whbob_SS_Theo_A_w52] | 96.7 | 130 | 111 | 152 | 95.6 |
| UGAUACCAGACGGCCGCCACUAGAGCUAGCAAAGCUAGCAAGUGAUGUUUGAGGAGUGAUGUUCCUAGGACCGGGUCUGGUAUCU [TrypBX 2 #Palindromic #SwitchBubble #StaticStem] | 103 | 85.5 | 96.2 | 86.8 | 39.9 |
| UGAUACCAGACGGCCGCCACUCCUGCAAGUCAAAGACUUGCUAAAAGGAUCGUCCAGUGAUGUUGGAGGACCGGGUCUGGUAUCU [TrypBX 19 #SwitchBubble #Palindromic #StaticStem] | 795 | 621 | 744 | 638 | 486 |
| UGAUACCAGACGGCCGCCACUGGGACCGGGAGUGAUGUUCCAAAUAAAAGAAGCUCGGCCGCCACUAGGACCGGGUCUGGUAUCU [TrypBX 21 #DoubleAptamer #SwitchBubble] | 395 | 261 | 339 | 367 | 182 |
| UGAUACCAGACGGCCGCCACUGGUGCAUGUCAAAGACAUGCUAACCAAAUCGUGGAGUGAUGUUCCAGGACCGGGUCUGGUAUCU [TrypBX 22 #SwitchBubble #Palindromic #StaticStem] | 235 | 207 | 217 | 239 | 570 |
| UGAUACCAGACUGAUACCAGCCAGUGAUGUUGGCUAAAACCAAAAGCUGGCAAAGCCAGCGGCCCUUGGCAGCAGUCUGGUAUCU [TheoBX 1 #SwitchBubble #StaticStem] | 816 | 694 | 806 | 1010 | 667 |
| UGAUACCAGACUGAUACCAGCGAGUGAUGUUUGCUGAAAUCAGGGUCAAAGACCCUGUCUCGCCCUUGGCAGCAGUCUGGUAUCU [TheoBX 21 #SwitchBubble #StaticStem] | 735 | 601 | 754 | 223 | 688 |
| UGAUACCAGGCGGCCGCCACUCCCGCAGGUCAAAGACCUGCGAAGCUGGUUCUCCAGUGAUGUUGGAGGACCGGGCCUGGUAUCU [FiskerMod 26 - Jieux - Exclusion - Tryptophan B] | 191 | 141 | 152 | 168 | 436 |
| UGAUACCAGGCGGCCGCCACUCCUACAGGUCAAAGACCUGUAAAACUGGUUUUUUAGUGAUGUUGGAGGACCGGGCCUGGUAUCU [FiskerMod 28 - Jieux - Exclusion - Tryptophan B] | 181 | 108 | 178 | 183 | 177 |
| UGAUACCAGGCGGCCGCCACUCCUACAGGUCAAAGACCUGUAGAACUGGUUUUUUAGUGAUGUUGGAGGACCGGGCCUGGUAUCU [FiskerMod 30 - Jieux - Exclusion - Tryptophan B] | 698 | 217 | 394 | 296 | 321 |
| UGAUAGGACAGAAGGAGCGGAAGUGAUGUUUCCAAAUGGAUAAGGUGUCAAAAGACACCCUUCCAGGUAGGUCGCUGUCCUAUCU [ArgBX 14 #Palindromic #SwitchBubble #StaticStem] | 111 | 112 | 130 | 102 | 101 |
| UGAUAGGACAGAAGGAGCGGAGGUCGUCAAAGACGACCAAUACGUUAAAUAGGAGUGAUGUUCCAGGUAGGUCGCUGUCCUAUCU [ArgBX 30 #SwitchBubble #StaticStem] | 123 | 119 | 123 | 129 | 106 |
| UGAUUGCCAGUGAUGUUGGCAGUUUCUGAAGGAGCGCGUGAAAACGCAGGUAGGUCGCAGAUUAGUGCCAAUUGAUCGAAAGAUC [KL-XArg-A4] | 208 | 227 | 214 | 193 | 205 |
| UGCAUGCUUGGAGUGAUGUUCCAAGAUGAUACCAGUGCUUUUUUGCACCCUUGGCAGCGUCUGAUUGCAUGCACGUCGAAAGACG | 531 | 471 | 529 | 490 | 517 |
| UGGAGUGCCUGGUCGUCACUAUGCCAACCACGAGGACCGGUACGGCCGCCACUCGUGAGGGAUAUUCAGAAAGUGAUGUUUUUUG [theeternabot_exclusion_KL_Trp_A_1] | 590 | 370 | 529 | 450 | 403 |
| UGGAGUUGACGAAAAGUCAACUCCUGAGAUACCAGUGACGAAAGUCACCCUUGGCAGCUCACUCCCAGUGAUGUUGGUUCAUAAG [#04 K4 Theophylline A Same State] | 328 | 370 | 601 | 496 | 356 |
| UGGAGUUGACGAAAAGUCAACUCCUGAGAUACCAGUGACGAAAGUCACCCUUGGCAGCUCACUGCCAGUGAUGUUGGAACUAAAG [#02 K4 Theophylline A Same State] | 308 | 158 | 256 | 452 | 216 |
| UGGAGUUGACGAAAAGUCAACUCCUGAGAUACCAGUGACGAAAGUCACCCUUGGCAGCUCACUGGCAGUGAUGUUGCAAAAUAAA [KL-SSTheo-A4] | 135 | 52.2 | 60 | 84.7 | 123 |

| Sequence | apparent KD of K4 kissing-loop reporter (input ligand: FMN 200 uM) [nM] | apparent KD of K4 kissing-loop reporter (input ligand: arginine 13.2 mM) [nM] | apparent KD of K4 kissing-loop reporter (input ligand: none) [nM] | apparent KD of K4 kissing-loop reporter [1] [nM] | apparent KD of K4 kissing-loop reporter [2] [nM] |
| --- | --- | --- | --- | --- | --- |
| UGGAGUUGACGAAAAGUCAACUCCUGAGAUACCAGUGACGAAAGUCACCCUUGGCAGCUCACUGGCAGUGAUGUUGCACGAUAAA [KL-SSTheo-A1] | 123 | 66.1 | 80 | 181 | 101 |
| UGGGAUGUUAAAGGAUAUAGCAAGUGAUAUAAGAAAGUGAGUGAUGUUUAUGUAGGUGAUGAUAUGUUAGAAGGUUAACAAAACG [abcdefgh] | 296 | 158 | 211 | 185 | 218 |
| UGGUGCCAUUGGCGGGUAGAUAGUGGUGGCAAGGAUAUGUGAGCGAACAGAAGGUGCAUCAAGUUCAGUGAUGUUGGGCUCGAUU [theeternabot_sameState_KL_FMN_A_20] | 264 | 184 | 275 | 254 | 234 |
| UGGUUAAGCAGUGAUGUUGCAAGUAAUGAUACCAGUUAAGAAGAGAACCCUUGGCAGCAUAAAGUGCGCUCUGAUGAGUGUGCUU [whbob_SS_Theo_A_w54] | 197 | 218 | 240 | 239 | 179 |
| UGGUUUGGAAGUGAUGUUUCUAUAAGUGAUACCAGACAAAAGAAAGUCCCUUGGCAGCACAAUGAUGCCAAGGAAACGGCAUGAU [#15 K4 Theophylline A Same State] | 179 | 164 | 174 | 157 | 150 |
| UGUAAGCGCGUAGAUACCAGCAAACGAGUGAUGUUCAAAAGAUUAAGGAAAAGAAAGUAAUGCCCUUGGCAGCUAAUCAUAAGCG [whbob_Ex_Theo_B_sa91] | 304 | 316 | 449 | 397 | 247 |
| UGUAAGCGCGUAGAUACCAGCAGACGAGUGAUGUUCAAGAGAUUAAGGAAAAGAAAGUAAUGCCCUUGGCAGCUAAUCAUAAGCG [whbob_Ex_Theo_B_sa93] | 384 | 312 | 446 | 331 | 363 |
| UGUACCGAGUUAGGAUAUGUCGUCGAAAGACGAAAUGGAGUGAUGUUCCUUAAACUGCGAAAGCAGACAGAAGGGAUUUGGUACU [FmnBS 29 U11+U77] | 331 | 442 | 412 | 510 | 378 |
| UGUCAUGGAAACAUGAACGUUGAUGUUCGACGAGGACCGGUACGGCCGCCACUCGAGUAAUAGUCAGUGAUGUUGACUGGGCUAA [KL-SSTryp-A form1 sub2] | 146 | 216 | 219 | 250 | 140 |
| UGUCAUUGGUCGGCCGCCACUUCGUGUGGAGUGAUGUUUUGUAGGUUGUGUUGAAAGGUAUGGUGAAGGACCGGGACCGAUGACU [FiskerMod 20 - Jieux - Same State - Tryptophan B] | 651 | 384 | 496 | 1080 | 525 |
| UGUCAUUGGUCUGAUACCAGUACCCUUGGCAGCCAAGGAGUGAUGUUCCAAGGAUACCAGUACCCUUGGCAGCAGACCGAUGACU [TheoBS 25 #DoubleAptamer #SwitchBubble] | 884 | 802 | 758 | 194 | 964 |
| UGUCAUUGGUCUGAUACCAGUCCCUUGGCAGCCAAAUGGAGUGAUGUUCCAAGGAUACCAGACCCUUGGCAGCAGACCGAUGACU [TheoBS 26 #DoubleAptamer #SwitchBubble] | 556 | 397 | 552 | 377 | 499 |
| UGUGAACAAAAGUAGAGUGGACCACUAUAGCGAGGACCGGUACGGCCGCCACUCGUACAUGUAUUCAGUGAUGUUGAAAUGAGCU [whbob_EX_Tryp_A_t15] | 200 | 319 | 268 | 362 | 150 |
| UGUGAACAAAAGUAGAGUGGACCACUAUAGCGAGGACCGGUACGGCCGCCACUCGUAUAUAAAUUCAGUGAUGUUGAAAAGAGCU [Exclusion Tryptophan A GF1] | 175 | 283 | 215 | 260 | 149 |
| UGUGAGCUGUCGACAAAAGUCGACUAAAACGAGGAUAUGACGAAAGUCAGAAGGCGUCAAUAAUGGAGUGAUGUUCCUGCUCACU [FmnA 9 #SwitchBubble #K4Late] | 256 | 404 | 552 | 453 | 401 |
| UGUGGAGAAUAUGAUACCAGCAGUGAGAGAGAGGAAGUAUAGUGAUGUUAUAUGAGAGAAUGCCCUUGGCAGCAUAUGUAGUAGG [SSTheophylB.G] | 209 | 162 | 207 | 208 | 188 |
| UGUGUUUACCUGACUCAGUGAUGUUGAGAAGGAGCGUGCUAAAGCACAGGUAGGUCGCUCAACCUAAAUUCAGGUGAGCACUAAA | 350 | 258 | 312 | 326 | 257 |
| UGUUUUUACUGAAGGAGCGGCAAUUGAUACGUAGAUAUAGUGAUGUUAUAUAAGAUAGAGAGCCAGGUAGGUCGCAGAGUGUAUC [ExArgB.aB] | 217 | 188 | 207 | 172 | 213 |
| UUACUACCCAGUGAUGUUGGGUAGCGGCGGCGAGGACCGGUACGGCCGCCACUCGGCGCACGGGAGUGAUGUUCCUACCGUUAGG [Same state Tryptophan A GF 8] | 514 | 455 | 604 | 747 | 294 |
| UUAGUCAGAUUAUUAUUAGCCUGCGAGACUAAGGAUAUCCGAAUUCGGAGAAGGUAGUGAUGUUACUUUGGCAGGCACUGACAUU [AK8 Exc FMN A] | 890 | 611 | 727 | 643 | 576 |
